Laboratory results reported in patent publication US20250320281A1.

Assays:
Test in all cases: cell-based or functional assay
[1] = target: HIV-1 Env of pseudovirus MGRM-F1-017 (HIV-1)
[2] = target: HIV-1 Env of pseudovirus MGRM-AG-003 (clade CRF_AG) (HIV-1)
[3] = target: HIV-1 Env of pseudovirus MGRM-Chronic-B-010 (HIV-1)
[4] = target: HIV-1 Env of pseudovirus MGRM-AG-009 (clade CRF_AG) (HIV-1)
[5] = target: HIV-1 APV-6 envelope glycoprotein (Env) on pseudovirus (HIV-1)
[6] = target: HIV-1 JRCSF envelope glycoprotein (Env) on pseudovirus (HIV-1) (UniProt P20871)
[7] = target: HIV-1 Env of pseudovirus MGRM-G-025 (HIV-1, clade G isolate MGRM-G-025)
[8] = target: HIV-1 Env of isolate 98CN009 (CRF07 BC) (HIV-1 isolate 98CN009)
[9] = target: HIV-1 Env of isolate MGRM-Chronic-B-008, clade B, on pseudovirus (HIV-1)
[10] = target: HIV-1 Env of isolate MGRM-G-027 (HIV-1)
[11] = target: HIV-1 Env of isolate 98CN009 (HIV-1)
[12] = target: HIV-1 Env of isolate MGRM-G-001 (HIV-1)
[13] = target: HIV-1 Env of isolate MGRM-D-022 (pseudovirus) (HIV-1)
[14] = target: HIV-1 Env of isolate MGRM-D-005 (pseudovirus) (HIV-1)
[15] = target: HIV-1 Env of isolate MGRM-Chronic-B-004 (subtype B pseudovirus) (HIV-1)
[16] = target: HIV-1 Env of isolate MGRM-C-027 (HIV-1)
[17] = target: aMLV envelope (pseudovirus, negative control)
[18] = target: HIV-1 Env of isolate SC422661.8 (subtype B pseudovirus) (HIV-1)
[19] = target: HIV-1 Env of isolate 98CN009 (pseudovirus) (HIV-1)
[20] = target: HIV-1 Env of isolate SF162 (subtype B pseudovirus) (HIV-1) (UniProt P19550)
[21] = target: HIV-1 Env of isolate VLGCB3 (subtype B pseudovirus) (HIV-1)
[22] = target: HIV-1 Env of isolate APV_6 (subtype B pseudovirus) (HIV-1)
[23] = target: HIV-1 Env of isolate MGRM-D-002 (pseudovirus) (HIV-1)
[24] = target: HIV-1 Env of isolate TRJ04551.58 (subtype B pseudovirus) (HIV-1)
[25] = target: HIV-1 Env of isolate THR0.18 (subtype B pseudovirus) (HIV-1)
[26] = target: HIV-1 Env of isolate MGRM-D-003 (pseudovirus) (HIV-1)
[27] = target: HIV-1 Env of isolate MGRM-D-020 (pseudovirus) (HIV-1)
[28] = target: HIV-1 Env of isolate MGRM-AG-009 (HIV-1)
[29] = target: HIV-1 JRFL Env (pseudovirus, clade B) (HIV-1)
[30] = target: HIV-1 92BR020 Env (pseudovirus, clade B) (HIV-1)
[31] = target: HIV-1 Env of isolate MGRM-G-004 (HIV-1)
[32] = target: HIV-1 Env of isolate MGRM-AE-001 (subtype AE) (HIV-1)
[33] = target: HIV-1 Env of isolate MGRM-G-013 (HIV-1)
[34] = target: HIV-1 Env of isolate MG RM-D-016 (HIV-1)

Chain of 4980_N08 (PGT-143) (antibody) (VH): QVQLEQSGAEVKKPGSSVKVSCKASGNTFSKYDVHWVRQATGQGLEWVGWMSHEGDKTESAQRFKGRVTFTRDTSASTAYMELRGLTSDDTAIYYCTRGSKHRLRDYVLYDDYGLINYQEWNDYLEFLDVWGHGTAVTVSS
Chain of 4980_N08 (PGT-143) (antibody) (VL): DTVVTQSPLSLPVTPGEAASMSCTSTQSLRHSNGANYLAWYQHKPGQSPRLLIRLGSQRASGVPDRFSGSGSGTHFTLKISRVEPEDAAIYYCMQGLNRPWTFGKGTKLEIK
Chain of 4993_K13 (PGT-141) (antibody) (VH): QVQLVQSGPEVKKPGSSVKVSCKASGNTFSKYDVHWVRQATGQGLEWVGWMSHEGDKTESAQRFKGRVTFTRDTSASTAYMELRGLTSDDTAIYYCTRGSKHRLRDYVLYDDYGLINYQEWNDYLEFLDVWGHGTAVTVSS
Chain of 4993_K13 (PGT-141) (antibody) (VL): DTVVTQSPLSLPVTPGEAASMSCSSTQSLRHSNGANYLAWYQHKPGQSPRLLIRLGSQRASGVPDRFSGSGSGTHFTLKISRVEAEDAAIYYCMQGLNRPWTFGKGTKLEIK
Chain of 4970_K22 (PGT-144) (antibody) (VH): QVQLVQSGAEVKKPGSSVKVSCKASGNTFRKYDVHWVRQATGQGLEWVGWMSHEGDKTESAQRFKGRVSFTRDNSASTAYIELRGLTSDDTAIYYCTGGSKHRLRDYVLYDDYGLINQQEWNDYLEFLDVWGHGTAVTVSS
Chain of 4970_K22 (PGT-144) (antibody) (VL): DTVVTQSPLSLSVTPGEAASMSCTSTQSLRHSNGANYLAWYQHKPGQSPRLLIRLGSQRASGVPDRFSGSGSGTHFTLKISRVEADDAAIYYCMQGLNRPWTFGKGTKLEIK
Chain of 1443_C16 (PG16) (TCN-116) (antibody) (VH): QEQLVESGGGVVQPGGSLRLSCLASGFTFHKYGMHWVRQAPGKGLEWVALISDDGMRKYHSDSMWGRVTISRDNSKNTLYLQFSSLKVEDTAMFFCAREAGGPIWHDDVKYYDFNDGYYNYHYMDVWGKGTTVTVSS
Chain of 1443_C16 (PG16) (TCN-116) (antibody) (VL): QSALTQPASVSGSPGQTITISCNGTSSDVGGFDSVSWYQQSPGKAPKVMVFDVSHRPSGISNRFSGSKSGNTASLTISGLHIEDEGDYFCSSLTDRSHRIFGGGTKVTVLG
Chain of 4995_E20 (PGT-142) (antibody) (VH): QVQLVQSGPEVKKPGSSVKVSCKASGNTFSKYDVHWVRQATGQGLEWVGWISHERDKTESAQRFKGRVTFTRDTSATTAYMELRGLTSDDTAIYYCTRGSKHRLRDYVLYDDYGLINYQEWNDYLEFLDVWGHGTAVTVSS

Row | Substance | IC50 (µg/ml), pseudovirus neutralization [1] [µg/mL] | IC50 [2] [µg/mL] | IC50 (µg/ml), pseudovirus neutralization [3] [µg/mL] | IC50 [4] [µg/mL] | IC50, pseudovirus neutralization [5] [µg/mL] | IC50, pseudovirus neutralization [6] [µg/mL] | IC90 (pseudovirus neutralization) [6] [µg/mL] | IC50 (µg/ml), pseudovirus neutralization [7] [µg/mL] | IC50 (µg/ml), pseudovirus neutralization [8] [µg/mL] | IC50 (µg/ml), pseudovirus neutralization [9] [µg/mL] | IC50 (µg/mL), pseudovirus neutralization [10] [µg/mL] | IC50 (µg/mL), pseudovirus neutralization [12] [µg/mL] | IC50 (µg/mL), pseudovirus neutralization [31] [µg/mL] | IC50 (µg/mL), pseudovirus neutralization [33] [µg/mL] | also measured
1 | 2F5 (antibody) | > 50 | 0.14 | 0.96 | 24.8 | 0.1 | 3.36 | 25.3 | > 50 | > 50 | > 50 |  |  |  |  | 
2 | 2G12 (antibody) | > 50 | > 50 | 1.5 | > 50 | 5.3 | 0.66 | 5.38 | 31.9 | > 50 | 0.55 |  |  |  |  | 
3 | 4E10 (antibody) | 4.92 | 0.64 | 1.69 | 31.4 | 0.4 | 6 | 44.1 | 1.7 | 2.46 | 16.7 |  |  |  |  | 
4 | 1443_C16 (PG16) (TCN-116) (antibody) | > 50 | > 50 | 0.01 | > 50 | 0.08 | < 0.0025 | 0.013 | > 50 | 5.76 | 0.73 |  |  |  |  | 
5 | 1495_C14 (PGC14) (antibody) | > 50 | > 50 | 27 | > 50 | 7.41 | > 50 |  | > 50 | 43 | > 50 |  |  |  |  | 
6 | 1496_C09 (PG9) (TCN-109) (antibody) |  | 9.71 | 0.004 |  | 0.0869 | < 0.0025 | < 0.0025 |  | 1.07 | 6.66 | 0.007 | 0.166 |  |  | IC50 [11]: 0.371 µg/mL
7 | 4838_L06 (PGT-121) (antibody) |  |  |  |  |  |  |  |  |  |  |  |  |  |  | IC50, pseudovirus neutralization [13]: > 50 µg/mL; IC50, pseudovirus neutralization [14]: > 50 µg/mL; IC50 (µg/mL), pseudovirus neutralization [15]: 0.009 µg/mL; neutralization IC50 [16]: 0.011 µg/mL; neutralization IC50 (pseudovirus) [17]: > 10 µg/mL; IC50 (µg/mL), pseudovirus neutralization [18]: 0.098 µg/mL; IC50, pseudovirus neutralization [19]: 0.009 µg/mL; IC50 (µg/mL), pseudovirus neutralization [20]: 0.005 µg/mL; IC50 (µg/mL), pseudovirus neutralization [21]: 0.005 µg/mL; IC50 (µg/mL), pseudovirus neutralization [22]: 0.018 µg/mL; IC50, pseudovirus neutralization [23]: 0.006 µg/mL; IC50 (µg/mL), pseudovirus neutralization [24]: 7.09 µg/mL; IC50 (µg/mL), pseudovirus neutralization [25]: > 50 µg/mL; IC50, pseudovirus neutralization [26]: 10.7 µg/mL; IC50, pseudovirus neutralization [27]: 0.01 µg/mL; IC50 [28]: 0.08 µg/mL
8 | 4877_D15 (PGT-122) (antibody) |  |  |  |  |  |  |  |  |  |  |  |  |  |  | IC50, pseudovirus neutralization [13]: > 50 µg/mL; IC50, pseudovirus neutralization [14]: > 50 µg/mL; IC50 (µg/mL), pseudovirus neutralization [15]: 0.008 µg/mL; neutralization IC50 [16]: 0.039 µg/mL; IC50 neutralization [29]: 0.0471 µg/mL; neutralization IC50 (pseudovirus) [17]: > 10 µg/mL; IC50 (µg/mL), pseudovirus neutralization [18]: 0.103 µg/mL; IC50, pseudovirus neutralization [19]: 0.013 µg/mL; IC50 (µg/mL), pseudovirus neutralization [20]: 0.009 µg/mL; IC50 (µg/mL), pseudovirus neutralization [21]: 0.008 µg/mL; IC50 (µg/mL), pseudovirus neutralization [22]: 0.019 µg/mL; IC50, pseudovirus neutralization [23]: 0.005 µg/mL; IC50 (µg/mL), pseudovirus neutralization [24]: > 50 µg/mL; IC50 (µg/mL), pseudovirus neutralization [25]: > 50 µg/mL; IC50, pseudovirus neutralization [26]: > 50 µg/mL; IC50, pseudovirus neutralization [27]: 0.007 µg/mL; IC50 [28]: 0.128 µg/mL; IC50 neutralization [30]: 0.0337 µg/mL
9 | 4970_K22 (PGT-144) (antibody) |  |  |  |  |  |  |  |  |  |  | > 50 | > 50 | > 50 | > 50 | IC50 (µg/mL), pseudovirus neutralization [32]: > 50 µg/mL
10 | 4980_N08 (PGT-143) (antibody) |  |  |  |  |  |  |  |  |  |  | > 50 | 0.423 | > 50 | > 50 | IC50 (µg/mL), pseudovirus neutralization [32]: > 50 µg/mL
11 | 4993_K13 (PGT-141) (antibody) |  |  |  |  |  |  |  |  |  |  | > 50 | 0.392 | > 50 | > 50 | IC50 (µg/mL), pseudovirus neutralization [32]: > 50 µg/mL
12 | 4995_E20 (PGT-142) (antibody) |  |  |  |  |  |  |  |  |  |  | > 50 | 0.362 | > 50 | > 50 | IC50 (µg/mL), pseudovirus neutralization [32]: > 50 µg/mL
13 | 5123_A06 (PGT-125) (antibody) |  |  |  |  |  |  |  |  |  |  |  |  |  |  | IC50, pseudovirus neutralization [13]: 0.04 µg/mL; IC50, pseudovirus neutralization [14]: > 50 µg/mL; IC50 (µg/mL), pseudovirus neutralization [15]: 0.007 µg/mL; neutralization IC50 [16]: > 50 µg/mL; IC50 neutralization [29]: 0.0156 µg/mL; neutralization IC50 (pseudovirus) [17]: > 10 µg/mL; IC50 (µg/mL), pseudovirus neutralization [18]: 30.1 µg/mL; IC50, pseudovirus neutralization [19]: 0.03 µg/mL; IC50 (µg/mL), pseudovirus neutralization [20]: 0.004 µg/mL; IC50 (µg/mL), pseudovirus neutralization [21]: 0.015 µg/mL; IC50 (µg/mL), pseudovirus neutralization [22]: 0.021 µg/mL; IC50, pseudovirus neutralization [23]: 0.118 µg/mL; IC50 (µg/mL), pseudovirus neutralization [24]: 0.019 µg/mL; IC50 (µg/mL), pseudovirus neutralization [25]: > 50 µg/mL; IC50, pseudovirus neutralization [26]: 0.065 µg/mL; IC50, pseudovirus neutralization [27]: > 50 µg/mL; IC50 [28]: 0.026 µg/mL; IC50 neutralization [30]: 0.0214 µg/mL
14 | 5145_B14 (PGT-127) (antibody) |  |  |  |  |  |  |  |  |  |  |  |  |  |  | IC50, pseudovirus neutralization [13]: > 50 µg/mL; IC50, pseudovirus neutralization [14]: 6.02 µg/mL; IC50 (µg/mL), pseudovirus neutralization [15]: 0.018 µg/mL; neutralization IC50 [16]: > 50 µg/mL; IC50 (µg/mL), pseudovirus neutralization [18]: 36.7 µg/mL; IC50, pseudovirus neutralization [19]: 0.09 µg/mL; IC50 (µg/mL), pseudovirus neutralization [20]: 0.019 µg/mL; IC50 (µg/mL), pseudovirus neutralization [21]: 0.022 µg/mL; IC50 (µg/mL), pseudovirus neutralization [22]: 0.04 µg/mL; IC50, pseudovirus neutralization [23]: 0.6 µg/mL; IC50 (µg/mL), pseudovirus neutralization [24]: 0.063 µg/mL; IC50 (µg/mL), pseudovirus neutralization [25]: > 50 µg/mL; IC50, pseudovirus neutralization [26]: 0.029 µg/mL; IC50, pseudovirus neutralization [27]: 0.015 µg/mL; IC50 [28]: 0.059 µg/mL
15 | PGV04 (antibody) |  |  |  |  |  |  |  |  |  |  | 0.125 | > 50 | > 50 | 0.168 | IC50 [11]: 0.0125 µg/mL
16 | VRC01 (antibody) |  |  |  |  |  |  |  |  |  |  | 0.36 | 0.0371 | > 50 | 0.553 | IC50 (µg/mL), pseudovirus neutralization [16]: 0.125 µg/mL; IC50 [34]: 0.452 µg/mL; IC50 (µg/mL), pseudovirus neutralization [32]: 0.167 µg/mL
17 | b12 (antibody) | > 50 | > 50 | > 50 | > 50 | > 25 | 0.16 | 1.17 | > 50 | 1.52 | 2.82 |  |  |  |  | 
